Assay results from the supplement of paper PMC9112550, “Optimization of the antimicrobial peptide Bac7 by deep mutational scanning” (BMC Biology, 2022).

Tested on: Escherichia coli TOP10
Assay: shrunken log2 fold change of peptide-encoding DNA abundance (4.5 h post-induction vs induction); higher = less antimicrobial activity (less host growth inhibition)
Conditions: time post-induction: 4.5 h; library: site-saturation at positions 5, 18, 19, 20
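Further: peptides expressed intracellularly from a pBAD plasmid library in pooled LB shake-flask culture, induced with 0.3% L-arabinose, DNA abundance read by NGS, three biological replicates, DESeq2 with apeglm shrinkage.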

| Sequence | shrunken log2 fold change |
| --- | --- |
| RRIRPRPPRLPRPRPRPMQDPRP | 0.0218 |
| RRIRVRPPRLPRPRPRPRFYPRP | 0.112 |
| RRIRWRPPRLPRPRPRPNYCPRP | -0.113 |
| RRIRKRPPRLPRPRPRPQWLPRP | 0.0628 |
| RRIRMRPPRLPRPRPRPTFYPRP | -0.157 |
| RRIRIRPPRLPRPRPRPWGYPRP | -0.156 |
| RRIRARPPRLPRPRPRPAGSPRP | 0.0823 |
| RRIRGRPPRLPRPRPRPHQTPRP | 0.242 |
| RRIRPRPPRLPRPRPRPMFAPRP | -0.0605 |
| RRIRGRPPRLPRPRPRPTPVPRP | 1.07 |
| RRIRKRPPRLPRPRPRPFRFPRP | 0.125 |
| RRIRKRPPRLPRPRPRPLGAPRP | 0.58 |
| RRIRGRPPRLPRPRPRPWNTPRP | 0.111 |
| RRIRQRPPRLPRPRPRPTKQPRP | 0.045 |
| RRIRYRPPRLPRPRPRPNVPPRP | -3.01 |
| RRIRGRPPRLPRPRPRPRLKPRP | 0.777 |
| RRIRRRPPRLPRPRPRPYYRPRP | -0.186 |
| RRIRWRPPRLPRPRPRPHNKPRP | -0.39 |
| RRIRHRPPRLPRPRPRPPVIPRP | -0.251 |
| RRIRQRPPRLPRPRPRPIQVPRP | -0.201 |
| RRIRYRPPRLPRPRPRPPQDPRP | -0.362 |
| RRIRDRPPRLPRPRPRPKPCPRP | 0.0155 |
| RRIRDRPPRLPRPRPRPPDGPRP | 0.577 |
| RRIRHRPPRLPRPRPRPAINPRP | -0.221 |
| RRIRRRPPRLPRPRPRPWYRPRP | -0.151 |

| Sequence | shrunken log2 fold change |
| --- | --- |
| RRIRWRPPRLPRPRPRPWVVPRP | 1.61 |
| RRIRMRPPRLPRPRPRPYWDPRP | -0.0427 |
| RRIRVRPPRLPRPRPRPDYDPRP | 0.00442 |
| RRIRDRPPRLPRPRPRPREYPRP | 0.306 |
| RRIRMRPPRLPRPRPRPSLDPRP | 0.663 |
| RRIRYRPPRLPRPRPRPPKTPRP | -0.38 |
| RRIRRRPPRLPRPRPRPRCKPRP | 0.358 |
| RRIRFRPPRLPRPRPRPTCRPRP | -0.0357 |
| RRIRYRPPRLPRPRPRPRPMPRP | -0.227 |
| RRIRNRPPRLPRPRPRPRFGPRP | 0.399 |
| RRIRGRPPRLPRPRPRPPQCPRP | 0.713 |
| RRIRQRPPRLPRPRPRPVDLPRP | -0.0892 |
| RRIRHRPPRLPRPRPRPYYNPRP | -1.28 |
| RRIRERPPRLPRPRPRPQMDPRP | 0.178 |
| RRIRPRPPRLPRPRPRPPLWPRP | 1.75 |
| RRIRHRPPRLPRPRPRPDIDPRP | -0.235 |
| RRIRYRPPRLPRPRPRPAICPRP | 0.0426 |
| RRIRQRPPRLPRPRPRPKSQPRP | 0.32 |
| RRIRRRPPRLPRPRPRPMHFPRP | 0.0461 |
| RRIRDRPPRLPRPRPRPCYNPRP | -0.271 |
| RRIRIRPPRLPRPRPRPSWWPRP | -0.059 |
| RRIRYRPPRLPRPRPRPGVDPRP | -0.0308 |
| RRIRSRPPRLPRPRPRPQCDPRP | -0.193 |
| RRIRLRPPRLPRPRPRPVKDPRP | -0.211 |
| RRIRPRPPRLPRPRPRPNMYPRP | -0.746 |

| Sequence | shrunken log2 fold change |
| --- | --- |
| RRIRARPPRLPRPRPRPWCDPRP | 0.00114 |
| RRIRIRPPRLPRPRPRPALTPRP | 0.0227 |
| RRIRKRPPRLPRPRPRPCWTPRP | -0.0905 |
| RRIRTRPPRLPRPRPRPHRFPRP | -0.0213 |
| RRIRKRPPRLPRPRPRPTEMPRP | 0.25 |
| RRIRKRPPRLPRPRPRPNAQPRP | 0.842 |
| RRIRTRPPRLPRPRPRPANMPRP | -0.291 |
| RRIRERPPRLPRPRPRPTDKPRP | -0.234 |
| RRIRPRPPRLPRPRPRPRSYPRP | 0.199 |
| RRIRLRPPRLPRPRPRPTLNPRP | -0.0428 |
| RRIRNRPPRLPRPRPRPPGHPRP | 0.463 |
| RRIRARPPRLPRPRPRPHHQPRP | -0.0146 |
| RRIRCRPPRLPRPRPRPVMGPRP | 0.111 |
| RRIRGRPPRLPRPRPRPTDVPRP | 0.307 |
| RRIRKRPPRLPRPRPRPVPYPRP | -0.0558 |
| RRIRGRPPRLPRPRPRPMFWPRP | 0.336 |
| RRIRARPPRLPRPRPRPTQDPRP | 0.974 |
| RRIRNRPPRLPRPRPRPICGPRP | -0.253 |
| RRIRPRPPRLPRPRPRPVTIPRP | -0.344 |
| RRIRQRPPRLPRPRPRPYAQPRP | -0.214 |
| RRIRSRPPRLPRPRPRPWMNPRP | -0.267 |
| RRIRPRPPRLPRPRPRPEHLPRP | -0.109 |
| RRIRIRPPRLPRPRPRPTQLPRP | 0.31 |
| RRIRRRPPRLPRPRPRPPVQPRP | 0.366 |
| RRIRMRPPRLPRPRPRPYVYPRP | -0.175 |

| Sequence | shrunken log2 fold change |
| --- | --- |
| RRIRDRPPRLPRPRPRPTAYPRP | -0.22 |
| RRIRMRPPRLPRPRPRPTPYPRP | 0.2 |
| RRIRVRPPRLPRPRPRPDDTPRP | -0.00824 |
| RRIRNRPPRLPRPRPRPTSFPRP | 0.00362 |
| RRIRPRPPRLPRPRPRPHRVPRP | 0.164 |
| RRIRPRPPRLPRPRPRPLDLPRP | -0.102 |
| RRIRDRPPRLPRPRPRPLRMPRP | 0.409 |
| RRIRIRPPRLPRPRPRPPRAPRP | 0.417 |
| RRIRNRPPRLPRPRPRPPATPRP | 0.615 |
| RRIRLRPPRLPRPRPRPQFIPRP | -0.433 |
| RRIRWRPPRLPRPRPRPVAWPRP | 0.489 |
| RRIRFRPPRLPRPRPRPNIHPRP | -0.814 |
| RRIRERPPRLPRPRPRPHPGPRP | 0.033 |
| RRIRIRPPRLPRPRPRPCIKPRP | -0.185 |
| RRIRVRPPRLPRPRPRPPVHPRP | -0.0509 |
| RRIRPRPPRLPRPRPRPYQDPRP | -0.025 |
| RRIRPRPPRLPRPRPRPLRSPRP | 0.167 |
| RRIRFRPPRLPRPRPRPSAIPRP | -0.304 |
| RRIRMRPPRLPRPRPRPNLKPRP | 0.158 |
| RRIRRRPPRLPRPRPRPMDRPRP | 0.118 |
| RRIRYRPPRLPRPRPRPVIAPRP | -0.354 |
| RRIRIRPPRLPRPRPRPLGCPRP | -0.0574 |
| RRIRQRPPRLPRPRPRPPGDPRP | 0.194 |
| RRIRMRPPRLPRPRPRPLALPRP | 0.0404 |
| RRIRWRPPRLPRPRPRPWEDPRP | -0.0135 |

| Sequence | shrunken log2 fold change |
| --- | --- |
| RRIRFRPPRLPRPRPRPIFKPRP | -0.153 |
| RRIRSRPPRLPRPRPRPDDQPRP | 0.143 |
| RRIRHRPPRLPRPRPRPGLLPRP | -0.0335 |
| RRIRKRPPRLPRPRPRPKTGPRP | 0.821 |
| RRIRIRPPRLPRPRPRPIVMPRP | -0.0726 |
| RRIRGRPPRLPRPRPRPLANPRP | 0.835 |
| RRIRDRPPRLPRPRPRPRFNPRP | 0.858 |
| RRIRMRPPRLPRPRPRPHNLPRP | -0.0351 |
| RRIRYRPPRLPRPRPRPSWCPRP | -0.0502 |
| RRIRERPPRLPRPRPRPTNTPRP | -0.697 |
| RRIRWRPPRLPRPRPRPWWNPRP | -0.0562 |
| RRIRDRPPRLPRPRPRPTGHPRP | 0.502 |
| RRIRLRPPRLPRPRPRPDVMPRP | -0.269 |
| RRIRDRPPRLPRPRPRPAFGPRP | 0.238 |
| RRIRIRPPRLPRPRPRPRARPRP | 0.456 |
| RRIRLRPPRLPRPRPRPKPAPRP | 0.679 |
| RRIRERPPRLPRPRPRPAMFPRP | -1.09 |
| RRIRKRPPRLPRPRPRPKTDPRP | 0.343 |
| RRIRLRPPRLPRPRPRPMNGPRP | -0.618 |
| RRIRPRPPRLPRPRPRPVRQPRP | 0.219 |
| RRIRVRPPRLPRPRPRPRWRPRP | 0.587 |
| RRIRHRPPRLPRPRPRPMHDPRP | -0.0353 |
| RRIRARPPRLPRPRPRPKDFPRP | -0.0146 |
| RRIRPRPPRLPRPRPRPKSSPRP | -0.278 |
| RRIRNRPPRLPRPRPRPQREPRP | -0.00141 |
